Measurements taken from US20140088008A1 (Amgen, published 2014).

T1: myostatin (UniProt O14793 267-375, limits assumed)
T1 construct: mature; also called GDF-8; growth/differentiation factor 8
T1 sequence (looked up): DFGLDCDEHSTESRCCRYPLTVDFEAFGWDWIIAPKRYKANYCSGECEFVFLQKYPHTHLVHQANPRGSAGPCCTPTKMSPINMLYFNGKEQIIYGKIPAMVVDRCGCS

T2: GDF-11 (UniProt O95390 299-407)
T2 sequence (looked up): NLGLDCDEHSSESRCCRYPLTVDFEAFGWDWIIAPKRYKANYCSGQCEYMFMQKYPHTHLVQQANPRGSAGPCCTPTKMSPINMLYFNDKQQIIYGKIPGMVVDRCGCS

T3: activin A (UniProt P08476 311-426)
T3 sequence (looked up): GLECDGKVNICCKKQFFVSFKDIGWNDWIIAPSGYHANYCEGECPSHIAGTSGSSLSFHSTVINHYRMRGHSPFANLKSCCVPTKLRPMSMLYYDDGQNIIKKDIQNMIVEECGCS


How the values were obtained:
[1] = molecular target: T1, myostatin; experiment: BIAcore solution competition: soluble receptor titrated against 4 nM myostatin, free myostatin captured on immobilized human ActRIIB-ECD/Fc (R&D Systems) on a CM5 chip
Procedure: Blocking assays were carried out using immobilized human ActRIIB-ECD/Fc (R&D Systems, Minneapolis, Mn.) on a CM5 chip (Biacore, Inc., Piscataway, N.J.) in the presence and absence of each of the two soluble receptors ActRIIB-ECD/Fc and ActRIIB5/Fc using the BIAcore® assay system according to the manufacturer's instructions.
100% myostatin binding signal was determined in the absence of receptor in solution. Various concentrations of the soluble receptors were diluted in sample buffer and incubated with 4 nM myostatin before being injected over the receptor surface. Since only free myostatin molecules were able to bind to the chip, a decreased binding response with increasing concentration of the receptors indicated binding of the receptors to myostatin in solution. Plotting the binding signal vs. concentration of soluble receptor, ActRIIB-ECD/Fc and ActRIIB5/Fc were calculated to have an EC₅₀ of approximately 18 nM and 7 nM respectively.

[2] = molecular target: T2, GDF-11; experiment: cell-based or functional assay
[3] = molecular target: T3, activin A; experiment: cell-based or functional assay
[4] = molecular target: T1, myostatin; experiment: cell-based or functional assay

| EC50 [1] [nM] | GDF-11-neutralizing activity IC50 (nM) vs. 4 nM GDF-11; pMARE-luc C2C12 luciferase reporter [2] [nM] | activin A neutralizing activity IC50 (nM) vs. 20 nM activin; pMARE-luc C2C12 luciferase reporter [3] [nM] | myostatin-neutralizing activity IC50 (nM) vs. 4 nM myostatin; pMARE-luc C2C12 luciferase reporter [4] [nM] | Binder |
| --- | --- | --- | --- | --- |
| ~7 | 90.6 | 156 | 29.7 | huActRIIB5/Fc (Fc fusion, also called human activin type IIB5 receptor Fc fusion; not shown: human IgG1 Fc) SGRGEAETRECIYYNANWELERTNQSGLERCEGEQDKRLHCYASWRNSSGTIELVKKGCWLDDFNCYDRQECVATEENPQVYFCCCEGNFCNERFTHLPEAGGPEGPWASTTIPSGGPEATAAAGDQGSGALWLCLEGPAHEGGGGGGGG |
| ~18 | 89.9 | 340 | 51.1 | huActRIIB-ECD/Fc (Fc fusion, not shown: human IgG1 Fc, fused directly (no linker)) SGRGEAETRECIYYNANWELERTNQSGLERCEGEQDKRLHCYASWRNSSGTIELVKKGCWLDDFNCYDRQECVATEENPQVYFCCCEGNFCNERFTHLPEAGGPEV |
